The target in test [1] is SARS-CoV-2 S glycoprotein, original Wuhan-Hu-1 strain (WT), full-length, on 293T cells (SARS-CoV-2, UniProt P0DTC2). As to the kind of experiment: flow cytometry on cells.
The next test concerns the target T1, Peptide #289 11-mer (SARS-CoV-2, Wuhan-Hu-1).
T1 chain: DKYFKNHTSPD
The test is described as follows: SPR.

In a further test the target is T2, Peptide #288 15-mer (SARS-CoV-2, Wuhan-Hu-1).
T2 chain: KEELDKYFKNHTSPD
The test is described as follows: ELISA.

B1: CV3-1 IgG (antibody, V domains shown)
VH: EVQLVESGPEVKKPGTSVKVPCKASGFTFTSSAVQWVRQARGQRLEWIGWIVVGSGNTNYAQKFQERVTITRDMSTSTAYMELSSLRSEDTAVYYCAAPSCSGGRCYDGFDIWGQGTMVTVSS
VL: not shown
With B1, the binding result in test [1] was “binds”.

B2: CV3-25 IgG (antibody, V domains shown)
VH: EVQLVESGAEVKKPGESLKISCKGSGYTFTRYWIGWVRQMPGKGLEWMGIIYPGDSDTRYSPSFQGHVTISADKSISTAYLQWNSLKASDTAMYYCARLPQYCSNGVCQRWFDPWGQGTLVTVSS
VL: EIVLTQSPSSVSASVGDRVTITCRASQGISSWLAWYQQKPGKAPKLLIYAASSLQSGVPSRFSGSGSGTDFTLTISSLQPEDFATYYCQQGNSFPYTFGQGTNLEIK
The molecule B2 showed a Kd with Peptide #289 11-mer of around 1000 nM. In addition, the binding result with Peptide #288 15-mer is on record as “binds”.
